# According to US20260217833A1 (APTEVO RESEARCH AND DEVELOPMENT, published 2026):
# Target: T1, human CD40 full-length (human, UniProt P25942 21-277)
# T1 construct: Also used for CD40 of Daudi cells, of CD40-expressing HEK293 cells and of the BPS CD40/NFkB HEK293 reporter cells where the row says so; also called CD4001012; CHOK1SV/CD40
# Test: flow cytometry, CHOK1SV/human CD40 cells
# T1 sequence (P25942 21-277): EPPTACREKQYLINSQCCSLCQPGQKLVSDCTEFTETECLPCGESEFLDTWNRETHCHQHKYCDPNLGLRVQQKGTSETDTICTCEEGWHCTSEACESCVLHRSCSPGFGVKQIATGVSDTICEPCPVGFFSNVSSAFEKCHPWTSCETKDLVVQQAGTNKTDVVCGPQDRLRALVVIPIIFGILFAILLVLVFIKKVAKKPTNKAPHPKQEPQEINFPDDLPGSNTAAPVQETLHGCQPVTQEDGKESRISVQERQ
row,Binder,binding result
1,"CD4001184 (Fc fusion, humanized 1D5 variant; not shown: wild-type human IgG1 Fc and the Fc-to-scFv linker) scFv: DIQMTQSPSSVSASVGDRVTITCRSSQSLLFSVNQKNYLAWYQQKPGKAPKLLIYWASTRESGVPDRFSGSGSGTDFTLTISSLQPEDFATYYCQHYYSYPWTFGQGTKVEIKGGGGSGGGGSGGGGSGGGGSQVQLVQSGAEVKKPGSSVKVSCKASGYTFSTSWIEWIRQAPGQGLEWIGSILPGSGSTNYNEKFKGKATFTADTSTSTAYMELSSLRSEDTAVYYCARGDDGSYVRWYFDHWGQGTLVTVSS",binds
2,"CD4001182 (Fc fusion, humanized 1D5 variant; not shown: wild-type human IgG1 Fc and the Fc-to-scFv linker) scFv: DIQMTQSPSSVSASVGDRVTITCRSSQSLLFSVNQKNYLAWYQQKPGKAPKLLIYWASSRQSGVPDRFSGSGSGTDFTLTISSLQPEDFATYYCQHYYSYPWTFGQGTKVEIKGGGGSGGGGSGGGGSGGGGSQVQLVQSGAEVKKPGSSVKVSCKATGYTFSTSWIEWIRQAPGQGLEWIGSILPGSGSTNYNEKFKGKATFTADTSTSTAYMELSSLRSEDTAVYYCARGDDGSYVRWYFDHWGQGTLVTVSS",binds
3,"CD4001201 (Fc fusion, humanized 1D5 variant; not shown: wildtype human IgG1 Fc and its linker to the scFv) scFv: DIQMTQSPSSVSASVGDRVTITCRSSQSLLFSVNQKNYLAWYQQKPGKAPKLLIYWASTRESGVPDRFSGSGSGTDFTLTISSLQPEDFATYYCQHYYSYPWTFGQGTKVEIKGGGGSGGGGSGGGGSGGGGSQVQLVQSGAEVKKPGSSVKVSCKASGYTFSTSWIEWIRQAPGQGLEWIGSILPGSGSTNYAEKFKGKATFTADESTSTAYMELSSLRSEDTAVYYCARGDDGSYVRWYFDHWGQGTLVTVSS",binds
4,"CD4001199 (Fc fusion, humanized 1D5 variant; not shown: wildtype human IgG1 Fc and its linker to the scFv) scFv: DIQMTQSPSSVSASVGDRVTITCRSSQSLLFSVNQKNYLAWYQQKPGKAPKLLIYWASTRESGVPDRFSGSGSGTDFTLTISSLQPEDFATYYCQHYYSYPWTFGQGTKVEIKGGGGSGGGGSGGGGSGGGGSQVQLVQSGAEVKKPGSSVKVSCKASGYTFSTSWIEWIRQAPGQGLEWMGSILPGSGSTNYNQKFQGRVTITADTSTSTAYMELSSLRSEDTAVYYCARGDDGSYVRWYFDHWGQGTLVTVSS",binds
5,"CD4001190 (Fc fusion, humanized 1D5 variant; not shown: wild-type human IgG1 Fc and the Fc-scFv linker) scFv: DIQMTQSPSSVSASVGDRVTITCRASQSLLFSVNQKNYLAWYQQKPGKAPKLLIYWASSRQSGVPDRFSGSGSGTDFTLTISSLQPEDFATYYCQHYYSYPWTFGQGTKVEIKGGGGSGGGGSGGGGSGGGGSQVQLVQSGAEVKKPGSSVKVSCKATGYTFSTSWIEWIRQAPGQGLEWIGSILPGSGSTNYNEKFKGKATFTADTSTSTAYMELSSLRSEDTAVYYCARGDDGSYVRWYFDHWGQGTLVTVSS",binds
6,"CD4001197 (Fc fusion, humanized 1D5 variant; not shown: wildtype human IgG1 Fc and its linker to the scFv) scFv: DIQMTQSPSSVSASVGDRVTITCRSSQSLLFSVNQKNYLAWYQQKPGKAPKLLIYWASTRESGVPDRFSGSGSGTDFTLTISSLQPEDFATYYCQHYYSYPWTFGQGTKVEIKGGGGSGGGGSGGGGSGGGGSQVQLVQSGAEVKKPGSSVKVSCKASGYTFSTSWISWVRQAPGQGLEWIGGILPGSGSTNYNEKFKGKATFTADESTSTAYMELSSLRSEDTAVYYCARGDDGSYVRWYFDHWGQGTLVTVSS",binds
7,"CD4001192 (Fc fusion, humanized 1D5 variant; not shown: wild-type human IgG1 Fc and the Fc-scFv linker) scFv: DIQMTQSPSSVSASVGDRVTITCRASQSLLFSVNQKNYLAWYQQKPGKAPKLLIYWASTLESGVPSRFSGSGSGTDFTLTISSLQPEDFATYYCQHYYSYPWTFGQGTKVEIKGGGGSGGGGSGGGGSGGGGSQVQLVQSGAEVKKPGSSVKVSCKATGYTFSTSWIEWIRQAPGQGLEWIGSILPGSGSTNYNEKFKGKATFTADTSTSTAYMELSSLRSEDTAVYYCARGDDGSYVRWYFDHWGQGTLVTVSS",binds
8,"CD4001195 (Fc fusion, humanized 1D5 variant; not shown: wild-type human IgG1 Fc and the Fc-scFv linker) scFv: DIQMTQSPSSVSASVGDRVTITCRSSQSLLFSVNQKNYLAWYQQKPGKAPKLLIYWASTRESGVPDRFSGSGSGTDFTLTISSLQPEDFATYYCQHYYSYPWTFGQGTKVEIKGGGGSGGGGSGGGGSGGGGSQVQLVQSGAEVKKPGSSVKVSCKASGYTFSTSWISWVRQAPGQGLEWIGGILPGSGSTNYAEKFKGKATFTADTSTSTAYMELSSLRSEDTAVYYCARGDDGSYVRWYFDHWGQGTLVTVSS",binds
9,"CD4001183 (Fc fusion, humanized 1D5 variant; not shown: wild-type human IgG1 Fc and the Fc-to-scFv linker) scFv: DIQMTQSPSSVSASVGDRVTITCRSSQSLLFSVNQKNYLAWYQQKPGKAPKLLIYWASTLESGVPSRFSGSGSGTDFTLTISSLQPEDFATYYCQHYYSYPWTFGQGTKVEIKGGGGSGGGGSGGGGSGGGGSQVQLVQSGAEVKKPGSSVKVSCKATGYTFSTSWIEWIRQAPGQGLEWIGSILPGSGSTNYNEKFKGKATFTADTSTSTAYMELSSLRSEDTAVYYCARGDDGSYVRWYFDHWGQGTLVTVSS",binds
10,"CD4001187 (Fc fusion, humanized 1D5 variant; not shown: wild-type human IgG1 Fc and the Fc-scFv linker) scFv: DIQMTQSPSSVSASVGDRVTITCRSSQSLLFSVNQKNYLAWYQQKPGKAPKLLIYWASTRESGVPDRFSGSGSGTDFTLTISSLQPEDFATYYCQHYYSYPWTFGQGTKVEIKGGGGSGGGGSGGGGSGGGGSQVQLVQSGAEVKKPGSSVKVSCKASGYTFSTSWIEWIRQAPGQGLEWIGSILPGSGSTNYAEKFKGKATFTADTSTSTAYMELSSLRSEDTAVYYCARGDDGSYVRWYFDHWGQGTLVTVSS",binds

# The remaining lines, values ahead:
row,binding result,Binder
1,no binding (tested: 300 nM),"CD4001193 (Fc fusion, humanized 1D5 variant; not shown: wild-type human IgG1 Fc and the Fc-scFv linker) scFv: DIQMTQSPSSVSASVGDRVTITCRASQSLLFSVNQKNYLAWYQQKPGKAPKLLIYWASSLQSGVPSRFSGSGSGTDFTLTISSLQPEDFATYYCQHYYSYPWTFGQGTKVEIKGGGGSGGGGSGGGGSGGGGSQVQLVQSGAEVKKPGSSVKVSCKATGYTFSTSWIEWIRQAPGQGLEWIGSILPGSGSTNYNEKFKGKATFTADTSTSTAYMELSSLRSEDTAVYYCARGDDGSYVRWYFDHWGQGTLVTVSS"
2,binds,"CD4001185 (Fc fusion, humanized 1D5 variant; not shown: wild-type human IgG1 Fc and the Fc-to-scFv linker) scFv: DIQMTQSPSSVSASVGDRVTITCRSSQSLLFSVNQKNYLAWYQQKPGKAPKLLIYWASTRESGVPDRFSGSGSGTDFTLTISSLQPEDFATYYCQHYYSYPWTFGQGTKVEIKGGGGSGGGGSGGGGSGGGGSQVQLVQSGAEVKKPGSSVKVSCKASGYTFSTSWISWVRQAPGQGLEWIGGILPGSGSTNYNEKFKGKATFTADTSTSTAYMELSSLRSEDTAVYYCARGDDGSYVRWYFDHWGQGTLVTVSS"
3,binds,"CD4001194 (Fc fusion, humanized 1D5 variant; not shown: wild-type human IgG1 Fc and the Fc-scFv linker) scFv: DIQMTQSPSSVSASVGDRVTITCRSSQSLLFSVNQKNYLAWYQQKPGKAPKLLIYWASTRESGVPDRFSGSGSGTDFTLTISSLQPEDFATYYCQHYYSYPWTFGQGTKVEIKGGGGSGGGGSGGGGSGGGGSQVQLVQSGAEVKKPGSSVKVSCKASGYTFSTSWISWVRQAPGQGLEWMGGILPGSGSTNYNEKFKGKVTITADTSTSTAYMELSSLRSEDTAVYYCARGDDGSYVRWYFDHWGQGTLVTVSS"
4,binds,"CD4001191 (Fc fusion, humanized 1D5 variant; not shown: wild-type human IgG1 Fc and the Fc-scFv linker) scFv: DIQMTQSPSSVSASVGDRVTITCRSSQSLLFSVNQKNYLAWYQQKPGKAPKLLIYWASSLQSGVPSRFSGSGSGTDFTLTISSLQPEDFATYYCQHYYSYPWTFGQGTKVEIKGGGGSGGGGSGGGGSGGGGSQVQLVQSGAEVKKPGSSVKVSCKATGYTFSTSWIEWIRQAPGQGLEWIGSILPGSGSTNYNEKFKGKATFTADTSTSTAYMELSSLRSEDTAVYYCARGDDGSYVRWYFDHWGQGTLVTVSS"
5,binds,"CD4001181 (Fc fusion, humanized 1D5 variant; not shown: wild-type human IgG1 Fc and the Fc-to-scFv linker) scFv: DIQMTQSPSSVSASVGDRVTITCRASQSLLFSVNQKNYLAWYQQKPGKAPKLLIYWASTRESGVPDRFSGSGSGTDFTLTISSLQPEDFATYYCQHYYSYPWTFGQGTKVEIKGGGGSGGGGSGGGGSGGGGSQVQLVQSGAEVKKPGSSVKVSCKATGYTFSTSWIEWIRQAPGQGLEWIGSILPGSGSTNYNEKFKGKATFTADTSTSTAYMELSSLRSEDTAVYYCARGDDGSYVRWYFDHWGQGTLVTVSS"
6,binds,"CD4001186 (Fc fusion, humanized 1D5 variant; not shown: wild-type human IgG1 Fc and the Fc-to-scFv linker) scFv: DIQMTQSPSSVSASVGDRVTITCRSSQSLLFSVNQKNYLAWYQQKPGKAPKLLIYWASTRESGVPDRFSGSGSGTDFTLTISSLQPEDFATYYCQHYYSYPWTFGQGTKVEIKGGGGSGGGGSGGGGSGGGGSQVQLVQSGAEVKKPGSSVKVSCKASGYTFSTSWIEWIRQAPGQGLEWMGSILPGSGSTNYNEKFKGKVTITADTSTSTAYMELSSLRSEDTAVYYCARGDDGSYVRWYFDHWGQGTLVTVSS"
7,binds,"CD4001203 (Fc fusion, humanized 1D5 variant; not shown: wildtype human IgG1 Fc and its linker to the scFv) scFv: DIQMTQSPSSVSASVGDRVTITCRSSQSLLFSVNQKNYLAWYQQKPGKAPKLLIYWASTRESGVPDRFSGSGSGTDFTLTISSLQPEDFATYYCQHYYSYPWTFGQGTKVEIKGGGGSGGGGSGGGGSGGGGSQVQLVQSGAEVKKPGSSVKVSCKASGYTFSTSWISWVRQAPGQGLEWMGGILPGSGSTNYAEKFKGKVTITADTSTSTAYMELSSLRSEDTAVYYCARGDDGSYVRWYFDHWGQGTLVTVSS"
8,binds,"CD4001196 (Fc fusion, humanized 1D5 variant; not shown: wild-type human IgG1 Fc and the Fc-scFv linker) scFv: DIQMTQSPSSVSASVGDRVTITCRSSQSLLFSVNQKNYLAWYQQKPGKAPKLLIYWASTRESGVPDRFSGSGSGTDFTLTISSLQPEDFATYYCQHYYSYPWTFGQGTKVEIKGGGGSGGGGSGGGGSGGGGSQVQLVQSGAEVKKPGSSVKVSCKASGYTFSTSWISWVRQAPGQGLEWIGGILPGSGSTNYNQKFQGRATFTADTSTSTAYMELSSLRSEDTAVYYCARGDDGSYVRWYFDHWGQGTLVTVSS"
9,binds,"CD4001204 (Fc fusion, humanized 1D5 variant; not shown: wildtype human IgG1 Fc and its linker to the scFv) scFv: DIQMTQSPSSVSASVGDRVTITCRSSQSLLFSVNQKNYLAWYQQKPGKAPKLLIYWASTRESGVPDRFSGSGSGTDFTLTISSLQPEDFATYYCQHYYSYPWTFGQGTKVEIKGGGGSGGGGSGGGGSGGGGSQVQLVQSGAEVKKPGSSVKVSCKASGYTFSTSWISWVRQAPGQGLEWMGGILPGSGSTNYNQKFQGRVTITADTSTSTAYMELSSLRSEDTAVYYCARGDDGSYVRWYFDHWGQGTLVTVSS"
